Experimental findings from US20150267232A1, “IN VIVO AND IN VITRO CARBENE INSERTION AND NITRENE TRANSFER REACTIONS CATALYZED BY HEME ENZYMES” (California Institute of Technology, priority 2012, published 2015) are described below.

A short description of experiment [1]: Intramolecular carbene C—H insertion, substrate 4.1a. The format is biochemical. The note with it: 10 mM 4.1a, 10 uM P450, 10 mM Na2S2O4; product 4.2a. As for the experimental part: Yield of product 4.22b was established after calibration with phenethyl alcohol as an internal standard. The reaction is not catalyzed by the WT-BM3 heme domain or hemin at 5% catalyst loading.
A representative procedure for P450-catalyzed C—H insertion is as follows: A vial containing WT-AxD (20 μL, 200 μM) was sealed with a teflon cap and the headspace of this vial was purged with argon for 5 min. Concurrently, a solution of sodium dithionite (11 mM in phosphate buffer pH=8) was degassed for a minimum of 5 min and 360 μL of this solution was transferred to the vial containing protein. The gas lines were disconnected from the vials. The substrate 4.1a or 4.1b was then added as a solution (20 μL, 200 mM). Final concentrations of all components were: 10 uM enzyme, 10 mM substrate, and 10 mM dithionite. […]
The mixture was extracted with 1 mL cyclohexane and analyzed by GC-MS or GC. GC-MS was performed on a Shimadzu TQ8030 GC-MS with ion count detector and J&W HP-5 column (30 m×0.32 mm, 0.25 μm film) using the following method: 90° C. (hold 2 min), 90-190° C. (20° C./min), and 190-230 (40° C./min)

A short description of experiment [2]: Whole-cell C—H amination of azide 1. The format is cell-based, E. coli BL21(DE3). The note with it: intact E. coli cells. How it is done: Reaction conditions were as follows: 2 mM azide 1, 25 mM glucose, E. coli BL21(DE3) cells in M9-N minimal medium (OD600=30), 2.5% DMSO, oxygen depletion system (100 U ml^−1 glucose oxidase, 1400 U ml^−1 catalase) reacted for 24 hours under anaerobic conditions at 298 K. Yields determined by HPLC quantification.
(§1) Whole cell reactions used E. coli BL21(DE3) cells containing P450 or P411 catalysts, which were expressed and prepared as described elsewhere (Coelho, P. S. et al., Highly efficient carbene transfer to olefins catalyzed in vivo. Submitted (2013)). Following expression, cells were resuspended to an OD600 of 30 in M9 salts lacking NH4Cl (M9-N), and then degassed by sparging with argon in a sealed 6 mL crimp vial for at least 0.5 h. Separately, glucose (250 mM dissolved in 1×M9-N, 40 μL, or multiples thereof) was degassed by sparging with argon for at least five minutes. The oxygen quenching mixture was added to sealed 2 mL crimp vials containing stir bars and the headspace of the vials was purged with argon for five minutes at which time glucose, and then cells were added by syringe. Substrate (80 mM arylsulfonyl azide, 10 uL in DMSO) was added via syringe, and the reactions were stirred at room temperature for 24 h under positive argon pressure.
as §1, with “E.” for “Whole cell reactions used E.”, “catalysts” for “catalysts, which”, “Coelho,” for “(Coelho,”, “μL” for “uL”, “pressure. Reactions were quenched in a manner identical to reactions containing purified enzymes as described above. For chiral HPLC, the reactions were extracted and purified in an identical manner as for reactions that employed purified enzymes. Lyophilized intact cells containing sucrose as a cryoprotectant were prepared as described elsewhere (Coelho, P. S. et al., Highly efficient carbene transfer to olefins catalyzed in vivo. Submitted (2013)). The resulting cell powder, containing expressed ABC-CIS (26 mg) were added along with a stir bar to a 2 mL crimp vial and then sealed. The headspace of the vial was degassed, oxygen quenching system (40 μL) was added via syringe, followed by degassed glucose (250 mM, 40 μL), M9-N (310 μL), and finally substrate (80 mM 1, 10 μL). Lyophilized cell reactions were stirred for 24 h at room temperature, then quenched and analyzed as described above. […]” for “pressure.”
The preparative reaction was scaled up proportionally from small-scale reactions. E. coli BL21 cells containing ABC-CIS (OD600 30, 90 mL in M9-N) were sparged with argon for 45 minutes in a round bottom flask (250 mL) containing a stir bar. Separately, glucose solution (250 mM, 11.6 mL) was sparged with argon in a conical flask. The oxygen quenching mixture (10×, 11.6 mL) was degassed in a conical flask that was placed under high vacuum until slight foaming occurred (1-2 s) and then back-filled with argon; this sequence was repeated several times. Sparged glucose solution was then added to the anaerobic cell suspension via syringe, followed by the oxygen quenching system. Finally, substrate 1 (80 mM, 2.9 mL DMSO) was added dropwise via syringe, and the reaction was stirred for 24 h at room temperature. To quench the reaction, dilute HCl (3 M, 8.7 mL) and acetonitrile (125 mL) were added. […]

The nature of experiment [3]: Small-scale anaerobic C—H amination with purified enzymes, azide 1. The format is biochemical. How it is done:
Activities are presented in TTN. […] Yields and enantioselectivies determined by HPLC analysis. * (S−R)/(S+R). nd=not determined.
Enzymes used as purified catalysts were expressed as previously described (Lewis, J. C. et al., Proc. Natl. Acad. Sci. U.S.A. 106, 16550-16555 (2009)), and were purified by anion-exchange chromatography (for holoenzymes) or Ni-NTA chromatography (for isolated heme domains). Concentrations of P450 or P411 enzymes were determined as previously reported (Omura, T. & Sato, R., J. Biol. Chem. 239, 2370-2378 (1964); Vatsis, K. P. et al., J. Inorg. Biochem. 91, 542-553 (2002)). Small-scale reactions (400 μL) were conducted in 2 mL crimp vials containing degassed buffer (0.1 M potassium phosphate pH 8.0), enzyme (0.1-0.5% catalyst loading) and oxygen depletion system (10× stock solution containing 14,000 U/mL catalase, 1,000 U/mL glucose oxidase dissolved in 0.1 M KPi pH 8.0). Enzyme (P450 or P411) solution and oxygen depletion mixture were added to the vial with a small stir bar before crimp-sealing. […] Reactions were stirred at room temperature for 24 h under positive argon pressure.
Small-scale reactions (400 μL) were conducted in 2 mL crimp vials (Agilent Technologies, San Diego, Calif.) containing buffer (0.1 M potassium phosphate pH 8.0), enzyme (0.1-0.5% catalyst loading) and oxygen depletion system (10× stock solution containing 14,000 U/mL catalase, 1,000 U/mL glucose oxidase dissolved in 0.1 M KPi pH 8.0). Enzyme (P450 or P411) solution and oxygen depletion mixture were added to the vial with a small stir bar before crimp-sealing. […] In the meantime, the headspace of the sealed 2 mL reaction vial with the P450 solution was made anaerobic by flushing argon over the protein solution (with no bubbling). The buffer/reductant/glucose solution (270 μL) was syringed into the reaction vial with continuous argon purge of the vial headspace. An arylsulfonyl azide solution in DMSO (10 μL, 80 mM) was added to the reaction vial via a glass syringe, and the reaction was left stirring for 24 h at room temperature under positive argon pressure. […] Reactions were quenched by adding 30 μL 3 M HCl under argon. To the vials were then added acetonitrile (430 uL) and internal standard (o-toluenesulfonamide 10 mM in 50% acetonitrile 50% water, 1 mM final concentration). This mixture was then transferred to a microcentrifuge tube, and centrifuged at 17,000×g for 10 minutes. A portion (20 μL) of the supernatant was then analyzed by HPLC. For LC-MS analysis, the quenched reaction mixture was extracted twice with ethyl acetate (2×350 μL), dried under a light argon stream and resuspended in 50% water-acetonitrile (100 μL). For chiral HPLC the reactions were extracted as above with ethyl acetate, dried and resuspended in DMSO (100 μL) and then C18 purified as described above. The C18 purified material was dried, and resuspended in acetonitrile, and then injected onto the chiral HPLC system for analysis. Sultam formation was quantified comparison of integrated peak areas of internal standard and sultam at 220 nm to a calibration curve made using synthetically produced sultam and internal standard.
Purified enzymes were screened for activity in small scale reactions (400 μL) under anaerobic conditions as described above. Reactions were carried out using 0.5% mol of enzyme (10 μM) with respect to the triethylsulfonyl azide substrate 1 (2 mM). Standard reaction conditions described above were employed. Diethyl benzosultam product 3 (FIG. 18) was analyzed and quantified by reversed-phase HPLC (see above).
Small-scale reactions (400 μL total volume) were set up and worked up. Control reactions were performed with both the holoenzyme (BM3 with covalently linked reductase domain) and the isolated heme domain. […] Reactions of the complete system with heme domain (CS heme) included 2 mM Na2S2O4 rather than NADPH unless otherwise indicated in the table. […]

Setting [4] is: OD600=30, 2 mM azide 1, 24 hours, anaerobic.

Where a chain is given by its changes, count along the chain named. Names and notes keep the numbering of the source.

B1: WT-AxH: WT heme domain + C400H (protein)
chain: TIKEMPQPKTFGELKNLPLLNTDKPVQALMKIADELGEIFKFEAPGRVTRYLSSQRLIKEACDESRFDKNLSQALKFVRDFAGDGLFTSWTHEKNWKKAHNILLPSFSQQAMKGYHAMMVDIAVQLVQKWERLNADEHIEVPEDMTRLTLDTIGLCGFNYRFNSFYRDQPHPFITSMVRALDEAMNKLQRANPDDPAYDENKRQFQEDIKVMNDLVDKIIADRKASGEQSDDLLTHMLNGKDPETGEPLDDENIRYQIITFLIAGHETTSGLLSFALYFLVKNPHVLQKAAEEAARVLVDPVPSYKQVKQLKYVGMVLNEALRLWPTAPAFSLYAKEDTVLGGEYPLEKGDELMVLIPQLHRDKTIWGDDVEEFRPERFENPSAIPQHAFKPFGNGQRAHIGQQFALHEATLVLGMMLKHFDFEDHTNYELDIKETLSLKPKGFVVKAKSKKIPLGGIPSPST
modifications: synthetic cytochrome P450-BM3 variant WT-AxH (heme)
notes: WT heme domain + C400H
On to B1, for which the Yield % in experiment [1] is listed as 0%.

B2: WT-AxK: WT heme domain + C400K (protein)
chain: B1 chain with H400K
modifications: synthetic cytochrome P450-BM3 variant WT-AxK (heme)
notes: WT heme domain + C400K
On to B2, for which, in experiment [1], the Yield % was 0%.

B3: WT-AxM: WT heme domain + C400M (protein)
chain: B1 chain with H400M
modifications: synthetic cytochrome P450-BM3 variant WT-AxM (heme)
notes: WT heme domain + C400M
For B3, the Yield % in experiment [1] amounted to 0%.

B4: ABC: P450BM3 variant: C400S (protein, listed as Bacillus megaterium)
chain: TIKEMPQPKTFGELKNLPLLNTDKPVQALMKIADELGEIFKFEAPGRVTRYLSSQRLIKEACDESRFDKNLSQALKFVRDFAGDGLFTSWTHEKNWKKAHNILLPSFSQQAMKGYHAMMVDIAVQLVQKWERLNADEHIEVPEDMTRLTLDTIGLCGFNYRFNSFYRDQPHPFITSMVRALDEAMNKLQRANPDDPAYDENKRQFQEDIKVMNDLVDKIIADRKASGEQSDDLLTHMLNGKDPETGEPLDDENIRYQIITFLIAGHETTSGLLSFALYFLVKNPHVLQKAAEEAARVLVDPVPSYKQVKQLKYVGMVLNEALRLWPTAPAFSLYAKEDTVLGGEYPLEKGDELMVLIPQLHRDKTIWGDDVEEFRPERFENPSAIPQHAFKPFGNGQRASIGQQFALHEATLVLGMMLKHFDFEDHTNYELDIKETLTLKPEGFVVKAKSKKIPLGGIPSPSTEQSAKKVRKKAENAHNTPLLVLYGSNMGTAEGTARDLADIAMSKGFAPQVATLDSHAGNLPREGAVLIVTASYNGHPPDNAKQFVDWLDQASADEVKGVRYSVFGCGDKNWATTYQKVPAFIDETLAAKGAENIADRGEADASDDFEGTYEEWREHMWSDVAAYFNLDIENSEDNKSTLSLQFVDSAADMPLAKMHGAFSTNVVASKELQQPGSARSTRHLEIELPKEASYQEGDHLGVIPRNYEGIVNRVTARFGLDASQQIRLEAEEEKLAHLPLAKTVSVEELLQYVELQDPVTRTQLRAMAAKTVCPPHKVELEALLEKQAYKEQVLAKRLTMLELLEKYPACEMKFSEFIALLPSIRPRYYSISSSPRVDEKQASITVSVVSGEAWSGYGEYKGIASNYLAELQEGDTITCFISTPQSEFTLPKDPETPLIMVGPGTGVAPFRGFVQARKQLKEQGQSLGEAHLYFGCRSPHEDYLYQEELENAQSEGIITLHTAFSRMPNQPKTYVQHVMEQDGKKLIELLDQGAHFYICGDGSQMAPAVEATLMKSYADVHQVSEADARLWLQQLEEKGRYAKDVWAG
modifications: cytochrome P450NADPH-P-450 reductase precursor, cytochrome P450 (BM3), CYP102A1
notes: P450BM3 variant: C400S
With B4, in experiment [2] (setting [4]), the “Yield sulfonamide (%)” value is 80%. Moreover, the “Yield sultam (%)” value in experiment [2] (setting [4]) was 6.7%. In addition, the TTN in experiment [2] (anaerobic, added glucose) is 29; in experiment [3] (0.1 mol % catalyst loading (2 μM), 2 mM azide 1, 2 mM NADPH, benzosultam 3) it was 32. For the same molecule, the “% ee” value in experiment [2] ((S − R)/(S + R)) was 16%; in experiment [3] (0.1 mol % catalyst loading, (S−R)/(S+R), benzosultam 3), 20%. For the same molecule, the “TTN (C—H amination product 3)” value in experiment [3] (catalyst loading 0.5 mol %, NADPH, anaerobic) is 49.
